Reference: article PMC2873289, “A Helix Replacement Mechanism Directs Metavinculin Functions” (PLoS ONE, 2010)

T1: head domain of vinculin (VH; residues 1–843) (human, UniProt P18206 1-843)
T1 construct: human vinculin head domain, residues 1-843 (the same in vinculin and metavinculin)
T1 sequence (looked up): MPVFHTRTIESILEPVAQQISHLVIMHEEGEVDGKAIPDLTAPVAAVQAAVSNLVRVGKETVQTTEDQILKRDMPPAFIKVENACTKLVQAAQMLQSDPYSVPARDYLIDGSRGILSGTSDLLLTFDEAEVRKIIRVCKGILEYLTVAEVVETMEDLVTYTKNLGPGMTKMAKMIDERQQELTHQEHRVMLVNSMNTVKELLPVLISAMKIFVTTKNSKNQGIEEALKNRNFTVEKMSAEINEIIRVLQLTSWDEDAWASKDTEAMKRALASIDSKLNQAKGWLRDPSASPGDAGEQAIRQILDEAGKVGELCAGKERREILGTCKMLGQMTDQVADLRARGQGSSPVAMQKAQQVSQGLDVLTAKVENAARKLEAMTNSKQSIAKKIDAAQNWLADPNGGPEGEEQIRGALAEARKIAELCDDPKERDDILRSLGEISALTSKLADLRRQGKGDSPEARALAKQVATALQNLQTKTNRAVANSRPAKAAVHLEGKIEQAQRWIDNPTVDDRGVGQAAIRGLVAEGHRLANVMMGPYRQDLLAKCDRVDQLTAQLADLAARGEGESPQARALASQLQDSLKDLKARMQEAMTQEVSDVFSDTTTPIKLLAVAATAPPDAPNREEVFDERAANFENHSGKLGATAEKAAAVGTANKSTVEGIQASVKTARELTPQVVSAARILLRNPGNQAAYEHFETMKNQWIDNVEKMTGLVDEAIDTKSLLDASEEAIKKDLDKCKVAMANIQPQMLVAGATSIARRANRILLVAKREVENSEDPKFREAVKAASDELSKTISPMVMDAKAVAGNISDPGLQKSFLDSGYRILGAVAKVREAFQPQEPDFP

T2: GST tagged vinculin tail domain (GST-Vt; residues 879–1,066) (human, UniProt P18206-2 879-1066)
T2 construct: human vinculin tail domain, residues 879-1,066 of vinculin (1,066-residue isoform), cloned in pGEX-4T-1; source: E. coli BL21-DE3, purified (GSTrap FF, Superdex 75)
T2 sequence (looked up): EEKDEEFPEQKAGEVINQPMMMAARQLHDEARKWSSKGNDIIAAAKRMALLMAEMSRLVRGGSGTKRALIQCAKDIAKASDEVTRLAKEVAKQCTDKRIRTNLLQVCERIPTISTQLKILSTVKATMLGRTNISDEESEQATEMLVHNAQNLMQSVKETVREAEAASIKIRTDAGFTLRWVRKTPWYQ

B1: metavinculin-ΔH1ΔH1′ (lacking residues 895–915 and 963–983) (natural protein, human, UniProt P18206 1-1134, looked up)
chain: MPVFHTRTIESILEPVAQQISHLVIMHEEGEVDGKAIPDLTAPVAAVQAAVSNLVRVGKETVQTTEDQILKRDMPPAFIKVENACTKLVQAAQMLQSDPYSVPARDYLIDGSRGILSGTSDLLLTFDEAEVRKIIRVCKGILEYLTVAEVVETMEDLVTYTKNLGPGMTKMAKMIDERQQELTHQEHRVMLVNSMNTVKELLPVLISAMKIFVTTKNSKNQGIEEALKNRNFTVEKMSAEINEIIRVLQLTSWDEDAWASKDTEAMKRALASIDSKLNQAKGWLRDPSASPGDAGEQAIRQILDEAGKVGELCAGKERREILGTCKMLGQMTDQVADLRARGQGSSPVAMQKAQQVSQGLDVLTAKVENAARKLEAMTNSKQSIAKKIDAAQNWLADPNGGPEGEEQIRGALAEARKIAELCDDPKERDDILRSLGEISALTSKLADLRRQGKGDSPEARALAKQVATALQNLQTKTNRAVANSRPAKAAVHLEGKIEQAQRWIDNPTVDDRGVGQAAIRGLVAEGHRLANVMMGPYRQDLLAKCDRVDQLTAQLADLAARGEGESPQARALASQLQDSLKDLKARMQEAMTQEVSDVFSDTTTPIKLLAVAATAPPDAPNREEVFDERAANFENHSGKLGATAEKAAAVGTANKSTVEGIQASVKTARELTPQVVSAARILLRNPGNQAAYEHFETMKNQWIDNVEKMTGLVDEAIDTKSLLDASEEAIKKDLDKCKVAMANIQPQMLVAGATSIARRANRILLVAKREVENSEDPKFREAVKAASDELSKTISPMVMDAKAVAGNISDPGLQKSFLDSGYRILGAVAKVREAFQPQEPDFPPPPPDLEQLRLTDELAPPKPPLPEGEVPPPRPPPPEEKDEEFPEQKAGEVIPGIPAAEVGIGVVAEADAADAAGFPVPPDMEDDYEPELLLMPSNQPVGNDIIAAAKRMALLMAEMSRLVRGGSGTKRALIQCAKDIAKASDEVTRLAKEVAKQCTDKRIRTNLLQVCERIPTISTQLKILSTVKATMLGRTNISDEESEQATEMLVHNAQNLMQSVKETVREAEAASIKIRTDAGFTLRWVRKTPWYQ
notes: human metavinculin, full length (1-1,134) lacking residues 895-915 (H1) and 963-983 (H1′); source: E. coli BL21-DE3, purified (as full-length metavinculin); not shown: His8, N-terminal, kept
B2: metavinculin-ΔH1′ (lacking residues 963–983) (natural protein, human, UniProt P18206 1-1134, looked up)
chain: MPVFHTRTIESILEPVAQQISHLVIMHEEGEVDGKAIPDLTAPVAAVQAAVSNLVRVGKETVQTTEDQILKRDMPPAFIKVENACTKLVQAAQMLQSDPYSVPARDYLIDGSRGILSGTSDLLLTFDEAEVRKIIRVCKGILEYLTVAEVVETMEDLVTYTKNLGPGMTKMAKMIDERQQELTHQEHRVMLVNSMNTVKELLPVLISAMKIFVTTKNSKNQGIEEALKNRNFTVEKMSAEINEIIRVLQLTSWDEDAWASKDTEAMKRALASIDSKLNQAKGWLRDPSASPGDAGEQAIRQILDEAGKVGELCAGKERREILGTCKMLGQMTDQVADLRARGQGSSPVAMQKAQQVSQGLDVLTAKVENAARKLEAMTNSKQSIAKKIDAAQNWLADPNGGPEGEEQIRGALAEARKIAELCDDPKERDDILRSLGEISALTSKLADLRRQGKGDSPEARALAKQVATALQNLQTKTNRAVANSRPAKAAVHLEGKIEQAQRWIDNPTVDDRGVGQAAIRGLVAEGHRLANVMMGPYRQDLLAKCDRVDQLTAQLADLAARGEGESPQARALASQLQDSLKDLKARMQEAMTQEVSDVFSDTTTPIKLLAVAATAPPDAPNREEVFDERAANFENHSGKLGATAEKAAAVGTANKSTVEGIQASVKTARELTPQVVSAARILLRNPGNQAAYEHFETMKNQWIDNVEKMTGLVDEAIDTKSLLDASEEAIKKDLDKCKVAMANIQPQMLVAGATSIARRANRILLVAKREVENSEDPKFREAVKAASDELSKTISPMVMDAKAVAGNISDPGLQKSFLDSGYRILGAVAKVREAFQPQEPDFPPPPPDLEQLRLTDELAPPKPPLPEGEVPPPRPPPPEEKDEEFPEQKAGEVINQPMMMAARQLHDEARKWSSKPGIPAAEVGIGVVAEADAADAAGFPVPPDMEDDYEPELLLMPSNQPVGNDIIAAAKRMALLMAEMSRLVRGGSGTKRALIQCAKDIAKASDEVTRLAKEVAKQCTDKRIRTNLLQVCERIPTISTQLKILSTVKATMLGRTNISDEESEQATEMLVHNAQNLMQSVKETVREAEAASIKIRTDAGFTLRWVRKTPWYQ
notes: human metavinculin, full length (1-1,134) lacking residues 963-983 (α-helix H1′): 1-962 joined to 984-1,134; also called MV-ΔH1′; source: E. coli BL21-DE3, purified (as full-length metavinculin); not shown: His8, N-terminal, kept
B3: metavinculin tail domain (MVt; residues 879–1,134) (domain or fragment, human, UniProt P18206 879-1134, looked up)
chain: EEKDEEFPEQKAGEVINQPMMMAARQLHDEARKWSSKPGIPAAEVGIGVVAEADAADAAGFPVPPDMEDDYEPELLLMPSNQPVNQPILAAAQSLHREATKWSSKGNDIIAAAKRMALLMAEMSRLVRGGSGTKRALIQCAKDIAKASDEVTRLAKEVAKQCTDKRIRTNLLQVCERIPTISTQLKILSTVKATMLGRTNISDEESEQATEMLVHNAQNLMQSVKETVREAEAASIKIRTDAGFTLRWVRKTPWYQ
notes: human metavinculin (1,134 residues) tail domain, residues 879-1,134; Tag-cleaved form as told in the purification methods; the His-detected form of the pull-down is m16; not shown: His6, N-terminal, cleaved
B4: MVt-R975W (residues 879–1134) (domain or fragment, human, UniProt P18206 879-1134, looked up)
chain: EEKDEEFPEQKAGEVINQPMMMAARQLHDEARKWSSKPGIPAAEVGIGVVAEADAADAAGFPVPPDMEDDYEPELLLMPSNQPVNQPILAAAQSLHWEATKWSSKGNDIIAAAKRMALLMAEMSRLVRGGSGTKRALIQCAKDIAKASDEVTRLAKEVAKQCTDKRIRTNLLQVCERIPTISTQLKILSTVKATMLGRTNISDEESEQATEMLVHNAQNLMQSVKETVREAEAASIKIRTDAGFTLRWVRKTPWYQ
notes: human metavinculin tail domain, residues 879-1,134, with the cardiomyopathy-associated mutation Arg975Trp; also called MVt-Arg975Trp; not shown: His6, N-terminal, cleaved
B5: MVt-ΔH1 (residues 959–1,130) as detected by His-tag Western blot in the GST-Vt pull-down (domain or fragment, human, UniProt P18206 959-1130, looked up)
chain: NQPVNQPILAAAQSLHREATKWSSKGNDIIAAAKRMALLMAEMSRLVRGGSGTKRALIQCAKDIAKASDEVTRLAKEVAKQCTDKRIRTNLLQVCERIPTISTQLKILSTVKATMLGRTNISDEESEQATEMLVHNAQNLMQSVKETVREAEAASIKIRTDAGFTLRWVRKT
notes: human metavinculin (1,134 residues), residues 959-1,130; Same construct as m3; source: E. coli, auto-induction media, purified; not shown: His8, N-terminal, kept
B6: MVt-ΔH1 (residues 959–1,130) (domain or fragment, human, UniProt P18206 959-1130, looked up)
chain: NQPVNQPILAAAQSLHREATKWSSKGNDIIAAAKRMALLMAEMSRLVRGGSGTKRALIQCAKDIAKASDEVTRLAKEVAKQCTDKRIRTNLLQVCERIPTISTQLKILSTVKATMLGRTNISDEESEQATEMLVHNAQNLMQSVKETVREAEAASIKIRTDAGFTLRWVRKT
notes: human metavinculin (1,134 residues), residues 959-1,130 (five-helix bundle H1′, H2-H5); The His-detected form of the pull-down is m17; also called MVt five-helix bundle (α-helices H1′, H2–H5); not shown: His8, N-terminal, cleaved

Assays:
[1] = target: the molecule itself; experiment: SEC; Hiload 26/60 Superdex 200 calibrated with molecular weight markers; without PIP2
[2] = target: T1, head domain of vinculin (VH; residues …); experiment: native gel or EMSA; reciprocal tail displacement: competing tail domains titrated into preformed VH:tail complexes at 2- and 10-fold molar excess; details in Methods S1; conditions: both partners purified
[3] = target: T2, GST tagged vinculin tail domain …; experiment: pull-down; GST-Vt on GST-Sepharose beads, with or without PIP2; tail domains (MVt, MVt-ΔH1) or Vh2–Vh3 as negative control; SDS-PAGE and Western blot with HRP-conjugated αHis or αGST antibodies; conditions: both partners purified

Row | Binder | stoichiometry N [1] | binding result [2] | also measured
1 | B1 | 2 |  | 
2 | B2 | 2 |  | 
3 | B3 |  | binds | 
4 | B4 |  | binds | 
5 | B5 |  |  | binding result [3]: binds
6 | B6 |  | binds | 
